Source: patent US20210145944

How the values were obtained:
p-Tau-441 = p-Tau-441 (UniProt P10636)
Tau-441 (P301L) = Tau-441 (P301L) (UniProt P10636)
α-synuclein = α-synuclein (UniProt P37840)
Tau-410 = Tau-410 (UniProt P10636)
Boc-QAR-AMC (ES014) = test system: T1, Boc-QAR-AMC (ES014)
T1 sequence: QAR

Chain of Tau-410 (P10636 other isoform, or with tags, fused parts or gaps): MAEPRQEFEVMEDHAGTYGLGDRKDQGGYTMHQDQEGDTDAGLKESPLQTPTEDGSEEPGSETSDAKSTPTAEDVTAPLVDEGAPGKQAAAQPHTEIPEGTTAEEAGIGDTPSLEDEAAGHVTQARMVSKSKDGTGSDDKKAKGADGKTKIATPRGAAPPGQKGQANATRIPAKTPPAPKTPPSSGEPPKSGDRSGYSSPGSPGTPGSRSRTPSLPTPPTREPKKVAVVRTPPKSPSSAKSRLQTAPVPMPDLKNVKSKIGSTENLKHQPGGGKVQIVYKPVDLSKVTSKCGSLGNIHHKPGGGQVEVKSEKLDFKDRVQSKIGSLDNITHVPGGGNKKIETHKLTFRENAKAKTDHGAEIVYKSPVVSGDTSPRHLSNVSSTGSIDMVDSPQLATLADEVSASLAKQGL
Chain of Tau-441 (P301L) (P10636 other isoform, or with tags, fused parts or gaps P301L): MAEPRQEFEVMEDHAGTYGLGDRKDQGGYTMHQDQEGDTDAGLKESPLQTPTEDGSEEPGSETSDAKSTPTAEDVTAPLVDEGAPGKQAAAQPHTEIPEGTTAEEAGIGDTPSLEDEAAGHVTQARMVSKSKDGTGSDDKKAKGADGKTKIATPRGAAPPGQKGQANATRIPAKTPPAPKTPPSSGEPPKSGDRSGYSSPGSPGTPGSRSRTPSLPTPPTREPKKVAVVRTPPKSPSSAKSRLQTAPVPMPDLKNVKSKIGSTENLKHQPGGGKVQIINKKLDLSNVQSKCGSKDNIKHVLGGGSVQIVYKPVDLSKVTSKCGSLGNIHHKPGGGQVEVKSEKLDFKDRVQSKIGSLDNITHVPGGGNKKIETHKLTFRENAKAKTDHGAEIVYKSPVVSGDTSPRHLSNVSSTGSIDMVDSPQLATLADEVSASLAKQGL
Chain of p-Tau-441 (P10636 whole entry, looked up): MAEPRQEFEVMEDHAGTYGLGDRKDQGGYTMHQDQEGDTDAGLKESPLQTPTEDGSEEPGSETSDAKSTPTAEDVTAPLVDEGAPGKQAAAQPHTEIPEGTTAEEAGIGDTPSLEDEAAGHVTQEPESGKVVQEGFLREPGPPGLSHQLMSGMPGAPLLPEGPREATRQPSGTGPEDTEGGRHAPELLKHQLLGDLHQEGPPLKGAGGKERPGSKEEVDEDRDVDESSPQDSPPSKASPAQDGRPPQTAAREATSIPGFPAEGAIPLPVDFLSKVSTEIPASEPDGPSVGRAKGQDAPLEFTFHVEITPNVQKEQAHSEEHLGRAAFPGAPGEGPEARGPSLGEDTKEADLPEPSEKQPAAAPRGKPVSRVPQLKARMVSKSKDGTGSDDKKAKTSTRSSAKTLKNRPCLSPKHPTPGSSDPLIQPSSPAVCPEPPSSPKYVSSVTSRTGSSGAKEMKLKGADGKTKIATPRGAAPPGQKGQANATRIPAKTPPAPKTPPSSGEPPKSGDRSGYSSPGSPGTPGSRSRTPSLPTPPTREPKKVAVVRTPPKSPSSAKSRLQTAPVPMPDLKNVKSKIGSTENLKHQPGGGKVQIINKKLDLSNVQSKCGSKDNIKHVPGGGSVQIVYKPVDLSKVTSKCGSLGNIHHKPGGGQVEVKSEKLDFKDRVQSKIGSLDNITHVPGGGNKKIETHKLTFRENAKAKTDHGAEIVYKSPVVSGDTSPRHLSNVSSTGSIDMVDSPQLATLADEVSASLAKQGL

Substance	casein digestion by resin-immobilized protease, RFU over time (Bodipy-labelled casein)	% digestion at 0 min (p-Tau-441) [%]	% digestion at 1 min (p-Tau-441) [%]	% digestion at 5 min (p-Tau-441) [%]	% digestion at 60 min (p-Tau-441) [%]	digestion on immobilized protease column (FIGS. 3B, 3C, 3E, 3F and Table 2) (p-Tau-441)	casein digestion by resin-immobilized protease, RFU (520 nm) over time (Bodipy-labelled casein)	casein digestion by resin-immobilized protease, fluorescence (RFU) at 5 and 60 min (Bodipy-labelled casein)	casein digestion, fluorescence (RFU) of Bodipy-labelled casein after 1 h against protease concentration in solution (Bodipy-labelled casein)	casein-digestion activity, immobilized protease, fluorescence (Bodipy-labelled casein)	casein-digestion activity, immobilized protease, fluorescence (FIG. 2B) (Bodipy-labelled casein)	casein-digestion activity, protease in solution, fluorescence (Bodipy-labelled casein)	digestion on immobilized protease column, SDS-PAGE silver stain (FIG. 3A) (Tau-441 (P301L))	loss of the Tau-441 (P301L) band on a silver-stained SDS-PAGE gel after incubation on the protease column (Tau-441 (P301L))	% digestion at 0 min (α-synuclein) [%]	% digestion at 1 min (α-synuclein) [%]	digestion on immobilized protease column (FIGS. 3D and 3G and Table 2) (α-synuclein)	% digestion at 0 min (Tau-410) [%]	% digestion at 1 min (Tau-410) [%]	% digestion at 5 min (Tau-410) [%]	further results
Cathepsin D resin	no signal: the line falls from 0 to about -6000 RFU at 120 min, at or below the control resin (about 0) over the whole time range	–	–	–	–	–	–	–	–	–	–	–	–	–	–	–	–	–	–	–	–
elastase	rises from 0 to about 40000 RFU at 60 min and about 95000 RFU at 120 min; highest curve; control resin stays at about 0	0	33	93	100	rapidly degraded	rises from 0 to about 107000 RFU at 60 min and about 150000 RFU at 120 min; Control-Resin (no protease) stays at or slightly below 0	bar at 5 min about 1.5x10^7 RFU, bar at 60 min about 4.3x10^7 RFU; signal grows with time; no control bar drawn	near 0 at about 0.006 ug/ml, rises steadily to about 8.5x10^7 RFU at 100 ug/ml on a log axis; still rising, no upper plateau; highest of the three curves	exhibited casein-digestion activity at 5 minute and 60 minute incubation times	exhibited casein-digestion activity at 60 minute and 120 minute incubation times	exhibited casein-digestion activity having linear reaction kinetics up to approximately 6 µg/ml of each protease	rapidly degraded	no band in the Elastase column lanes at 2, 10 and 20 min; the No protease column lanes show a strong band of equal strength at 2, 10 and 20 min, just above the second labelled marker	0	71	rapidly degraded	0	28	50	% digestion at 60 min (Tau-410): 81%; digestion on immobilized protease column (FIGS. 3B, 3C, 3E, 3F and Table 2) (Tau-410): rapidly degraded
kallikrein-6 (KLK6) activated by lysyl endopeptidase	close to the control at 60 min (about 1000-2000 RFU), then about 19000 RFU at 120 min; control resin stays at about 0	–	–	–	–	–	–	–	–	also exhibited casein-digestion activity at 120 minute incubation time	–	–	–	–	–	–	–	–	–	–	cleavage of fluorogenic peptide substrate, immobilized protease, 30, 60, 120 min (Boc-QAR-AMC (ES014)): exhibited protease activity at all time points tested; cleavage of the fluorogenic peptide substrate by resin-immobilized protease, AMC fluorescence (RFU) over time (Boc-QAR-AMC (ES014)): about 65000 RFU at 30 min, about 108000 at 60 min and about 215000 at 120 min, still rising; Control resin + ES014 stays at 0
trypsin	rises from 0 to about 24000 RFU at 60 min and about 76000 RFU at 120 min; control resin stays at about 0	0	70	100	100	rapidly degraded	rises from 0 to about 46000 RFU at 60 min and about 58000 RFU at 120 min; Control-Resin (no protease) stays at or slightly below 0	bar at 5 min about 1.0x10^7 RFU, bar at 60 min about 2.2x10^7 RFU; lowest of the three groups; no control bar drawn	near 0 up to about 0.2 ug/ml, rises slowly to about 1.4x10^7 RFU at 100 ug/ml; no upper plateau; lowest of the three curves	exhibited casein-digestion activity at 5 minute and 60 minute incubation times	exhibited casein-digestion activity at 60 minute and 120 minute incubation times	exhibited casein-digestion activity having linear reaction kinetics up to approximately 6 µg/ml of each protease	rapidly degraded	no band in the Trypsin column lanes at 2, 10 and 20 min; the No protease column lanes show a strong band of equal strength at 2, 10 and 20 min	0	90	rapidly degraded	0	59	65	% digestion at 5 min (α-synuclein): 100%; % digestion at 60 min (α-synuclein): 100%; % digestion at 60 min (Tau-410): 93%; digestion on immobilized protease column (FIGS. 3B, 3C, 3E, 3F and Table 2) (Tau-410): rapidly degraded
